Source: patent US6861508B2, “Transcriptional intermediary factor-2” (Institut National de la Sante et de la Recherche Medicale, priority 1996, dated 2005)

Key:
ER, RARα and RXRα LBDs = assay: GST pull-down of TIF2 polypeptides with NR LBDs; type: binding; details: in vitro, with or without 10^−6 M ligand
Experimental: (b) Mapping of the nuclear receptor-interacting domain of TIF2.
(c-d) Interaction of TIF2 NID mutants with NRs in vitro. […] For quantification of point mutant interactions, see below.
(e-f) Effect of TIF2 NID point mutations on stimulation of NR AF-2 activity. Cos-1 cells were cotransfected with 1 μg of the (17m)5-TATA-CAT reporter, 0.2 μg of GAL-hERα(EF) or GAL-mRXRα(DE), and 2.5 μg of the TIF2.1 wildtype or mutated fragments, as indicated. […] Each bar represents the mean value obtained from at least three (interaction) or at least four (transactivation) experiments, respectively; standard deviations are indicated. Note that the absolute values for TIF2.1 wildtype activity varied by ±16% when cotransfected with GAL-hERα(EF) and by ±34% when cotransfected with GAL-mRXRα(DE). In the in-vitro-interaction assays, the affinity of the TIF2.1 wildtype standard varied by less than ±25%. Expression levels of TIF2 mutants in the cells were verified by Western blot (not shown) with mouse monoclonal antibody 3Ti3F1, which is directed against an epitope outside the mutated area.
To further delineate the TIF2 NR interaction domain (NID), we studied the interaction between a series of TIF2 deletion mutants and the ER or RARα LBDs, using GST-fusion protein-based in vitro assays. In both cases, an NWD was mapped to the central region of TIF2 (amino acids 624-869 in mutant TIF2.5; see FIGS. 7a and b). No additional NWD could be identified in the N- or C-termini of TIF2 (FIGS. 7a and b; mutants TIF2.0, TIF2.2 and TIF2.7). Note that, in contrast, SRC-1, a paralogue of TIF2, apparently harbours two distinct non-contiguous NIDs located in the central and C-terminal regions (Onate, S. A. et al., Science 270:1354-1357 (1995), Yao, T. P. et al., Proc. Natl. Acad. Sci. USA 93:10626-10631 (1996); Zhu, Y. et al., Gene Epression 6:185-195 (1996)).

[1] = tested on: AF-2 activity of ER, RXRα and RARα; assay: dominant negative effect on NR AF-2 activity, (17m)5-TATA-CAT reporter; type: cell-based; details: HeLa and Cos-1 cells
Text: FIG. 12(a-d). The isolated nuclear receptor-interacting domain (ND) of TIF2 acts dominant-negatively on the transcriptional activation by the ER, RXR and RAR LBDs. The mean value of induction obtained from the quantitation of at least three experiments (relative to the respective receptor LBD activity in absence of recombinant TIF2) is indicated below each panel. Expression levels of TIF2, TIF2.1 and TIF2.5 were routinely verified by Western blot with mouse monoclonal antibody 3Ti3C11 directed against a region of TIF2.5 (not shown).
(b-d) Full length TIF2 and the coactivator fragment TIF2.1 enhance, whereas the nuclear receptor interacting domain TJF2.5 blocks the activity of the ER, RXR and RAR LBDs. Cos-1 and HeLa cells were cotransfected with 1 μg of the (17m)5-TATA-CAT reporter and 0.2 μg of the expression vector encoding the respective GAL DBD-fusion of hERα(EF), mRXRα(DE) or mRARα(DEF).
Assuming that TIF2 or coactivators recognizing the TIF2 interacting surface on NR LBDs, generally mediate the AF-2 function of NRs, the NID containing TIF2.5 should exert its dominant negative activity not only on ER, but also on other NRs, independently of the cellular context. We therefore analyzed the effect of TIF2.5 on the AF-2 activity of ER, RXRα and RARα in HeLa and in Cos-1 cells (FIGS. 12b-d).

GAL4 reporter = assay: GAL4 DBD-TIF2 fusion CAT reporter transactivation assay; type: cell-based; details: Cos-1 and/or HeLa cells
Method in brief: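 Transiently transfected HeLa and Cos-1 cells received plasmids (3 μg; 1-10 μg in titration) expressing TIF2 regions or mutants fused to GAL4 DBD(1-147), plus 1 μg (17m)5-G-CAT reporter. CAT activity measured by TLC phosphoimaging or CAT ELISA, normalized to cotransfected β-galactosidase, expressed as fold over GAL4 DBD alone; mean of ≥3 experiments.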

B1: TIF2.5: TIF2 fragment amino acids 624-869, isolated NID (protein)
chain: ERADGQSRLHDSKGQTKLLQLLTTKSDQMEPSPLASSLSDTNKDSTGSLPGSGSTHGTSLKEKHKILHRLLQDSSSPVDLAKLTAEATGKDLSQESSSTAPGSEVTIKQEPVSPKKKENALLRYLLDKDDTKDIGLPEITPKLERLDSKTDPASNTKLIAMKTEKEEMSFEPGDQPGSELDNLEEILDDLQNSQLPQLFPDTRPGAPAGSVDKQAIINDLMQLTAENSPVTPVGAQKTALRISQST
ER, RARα and RXRα LBDs
  binding to NRs (ER, RARα LBDs): can bind to NRs
[1]
  effect on NR AF-2 activity: dose-dependent inhibition of the NR AF-2 activity
GAL4 reporter
  transcriptional activation of GAL4 reporter by GAL4 DBD fusion: cannot activate transcription
